Data as given in patent US6300084A, “Anti-mitotic agent screening process” (The Regents of the University of California, priority 1999, dated 2001).
Values belong to the compound of their own block, whether it stands above or below them.

Legend:
[1] = biological target: yeast microtubules (yeast); assay: co-sedimentation with microtubules; no increase with more microtubules
[2] = biological target: bovine microtubules (assembled from bovine tubulin, stabilised with taxol) (bovine); assay: as above
[3] = system: microtubules of wild-type strain DDY898; assay: Microtubule depolymerization by benomyl in yeast cells, immunofluorescence; assay type: cell-based; details: 20 μg/ml benomyl, two hours at 25° C.
Experimental: Yeast cells were grown to early log phase in minimal or rich medium. For galactose induction, cells were grown to log phase in medium containing either raffinose or glucose. Cells grown on glucose were washed twice with water and then diluted into medium containing galactose/raffinose. Galactose was added directly to medium containing raffinose. Fixation and immunofluorescence procedures were carried out as described by Drubin et al. (1988). The YOL134 anti-tubulin antibody was used at 1:200 and the anti-Duo1p antibody (preparation described below) at 1:2000. Fluorescein-conjugated anti-heavy chain secondary antisera were obtained from Cappel/Organon Teknika (Malvern, Pa.). To determine whether the localization of Duo1p was dependent on microtubules in vivo, microtubules of wild-type strain DDY898 were depolymerized by the addition of 20 μg/ml benomyl. […] With the elimination of microtubules, Duo1p staining also vanished.

[4] = biological target: bovine microtubules (assembled from bovine tubulin, stabilised with taxol) (bovine); assay: co-sedimentation of in vitro translated Dam1p with taxol-stabilised bovine microtubules; half of Dam1p in the pellet at 5 µM microtubules

percent of the protein bound to microtubules [1]: 9%
percent of the protein bound to microtubules [2]: 9%
Compound: GST-Duo1p fusion protein purified from yeast (pDD475)

Compound: CCCCNC(=O)n1c(NC(=O)OC)nc2ccccc21 [benomyl]
depolymerization of microtubules (immunofluorescence) [3]: essentially all of the microtubules were depolymerized

Kd [4]: 5 µM
Compound: in vitro translated Dam1p
